The values below come from patent US11524977 (JIANGSU UNIVERSITY, dated 2022).

The experiment has as its target Angiotensin converting enzyme (ACE EC 3.4.15.1). The experiment is described as follows: cell-based or functional assay.
LSLP [Leu-Ser-Leu-Pro (LSLP)]: the “IC50 of ACE inhibitory activity” value stood at 71.1 µg/mL.

On to APY [Ala-Pro-Tyr (APY)], for which the “IC50 of ACE inhibitory activity” value amounted to 19.1 µg/mL.

Turning to LQPP [Leu-Gln-Pro-Pro (LQPP)], the “IC50 of ACE inhibitory activity” value was 14.2 µg/mL.
